Ends that are not written are not given here. * marks the point of attachment. Fluorescein(5-Mal) = O=C1OC2(c3ccc(O)cc3Oc3cc(O)ccc32)c2ccc(N3C(=O)CC(*)C3=O)cc21
How the values were obtained:
[1] = target: T1, human CPSF30 ZF2–C terminus (residues 62–244), wild type (human, UniProt O95639-2 62-244); experiment: fluorescence polarisation
[2] = target: T2, human CPSF30 (residues 62–244) Y127A mutant (human, UniProt O95639-2 62-244, Y127A); experiment: fluorescence polarisation
[3] = target: T3, human CPSF30 (residues 62–244) Y151A mutant (human, UniProt O95639-2 62-244, Y151A); experiment: fluorescence polarisation
[4] = target: human CPSF30 full-length (residues 1–244) Y127A mutant (human, UniProt O95639-2 1-244, Y127A); experiment: SEC
[5] = target: human CPSF30 full-length (residues 1–244) Y151A mutant (human, UniProt O95639-2 1-244, Y151A); experiment: SEC
[6] = target: CPSF30 (full-length, wild type)–hFip1 (residues 79–200) complex (human, UniProt O95639-2 1-244; Q6UN15 79-200); experiment: SEC
[7] = target: CPSF30 (full-length, Y127A)–hFip1 (residues 79–200) complex (human, UniProt O95639-2 1-244; Q6UN15 79-200, Y127A); experiment: SEC
[8] = target: CPSF30 (full-length, Y151A)–hFip1 (residues 79–200) complex (human, UniProt O95639-2 1-244; Q6UN15 79-200, Y151A); experiment: SEC
[9] = target: human CPSF30 ZF4–ZF5 (residues 114–173) (human, UniProt O95639-2 114-173); experiment: crystal structure
[10] = target: T1, human CPSF30 ZF2–C terminus (residues …); experiment: SEC
[11] = target: T2, human CPSF30 (residues 62–244) Y127A …; experiment: SEC
[12] = target: T3, human CPSF30 (residues 62–244) Y151A …; experiment: SEC

In the case of C(Fluorescein(5-Mal))FEDKPWRKPGADLSDYFNYGFNEDTWKAYSEKQKRIRMGLE (domain or fragment, human, UniProt Q6UN15 159-200, looked up) [hFip1 (residues 159–200) S159C/C189S mutant, FAM-labeled], the Kd [1] is reported as 0.69 ± 0.31 nM, the Kd [2] is reported as 220 ± 32 nM and the Kd [3] is reported as 1.8 ± 0.4 nM.

B1: hFip1 (residues 79–200) (domain or fragment, human, UniProt Q6UN15 79-200, looked up)
chain: TETEDDSDSDSDDDEDDVHVTIGDIKTGAPQYGSYGTAPVNLNIKTGGRVYGTTGTKVKGVDLDAPGSINGVPLLEVDLDSFEDKPWRKPGADLSDYFNYGFNEDTWKAYCEKQKRIRMGLE
For B1, the “stoichiometry N” value [4] was 1 hFip1 per CPSF30 and the “stoichiometry N” value [5] was 1 hFip1 per CPSF30.

B2: catalytic module of human poly(A) polymerase α (residues 1–524) (domain or fragment, UniProt P51003 1-524, looked up)
chain: MPFPVTTQGSQQTQPPQKHYGITSPISLAAPKETDCVLTQKLIETLKPFGVFEEEEELQRRILILGKLNNLVKEWIREISESKNLPQSVIENVGGKIFTFGSYRLGVHTKGADIDALCVAPRHVDRSDFFTSFYDKLKLQEEVKDLRAVEEAFVPVIKLCFDGIEIDILFARLALQTIPEDLDLRDDSLLKNLDIRCIRSLNGCRVTDEILHLVPNIDNFRLTLRAIKLWAKRHNIYSNILGFLGGVSWAMLVARTCQLYPNAIASTLVHKFFLVFSKWEWPNPVLLKQPEECNLNLPVWDPRVNPSDRYHLMPIITPAYPQQNSTYNVSVSTRMVMVEEFKQGLAITDEILLSKAEWSKLFEAPNFFQKYKHYIVLLASAPTEKQRLEWVGLVESKIRILVGSLEKNEFITLAHVNPQSFPAPKENPDKEEFRTMWVIGLVFKKTENSENLSVDLTYDIQSFTDTVYRQAINSKMFEVDMKIAAMHVKRKQLHQLLPNHVLQKKKKHSTEGVKLTALNDSSLD
For B2, the “stoichiometry N” value [6] was 2 PAP per CPSF30–hFip1 complex, the “stoichiometry N” value [7] was 1 PAP per CPSF30–hFip1 complex and the “stoichiometry N” value [8] was 1 PAP per CPSF30–hFip1 complex.

In the case of SFEDKPWRKPGADLSDYFNYGFNEDTWKAYCEKQKRIRMGLE (domain or fragment, human, UniProt Q6UN15 159-200, looked up) [hFip1 (residues 159–200)], the “stoichiometry N” value [9] is reported as 2 hFip1 per CPSF30, the “stoichiometry N” value [10] is reported as 2 hFip1 per CPSF30 and the “stoichiometry N” value [11] is reported as 1 hFip1 per CPSF30. For the same binder, the “stoichiometry N” value [12] was 1 hFip1 per CPSF30.

Reference: paper PMC7706699 (Genes & Development, 2020)
